Data on 1 protein can be found in paper PMC11190292, “Hetero-oligomerization of TDP-43 carboxy-terminal fragments with cellular proteins contributes to proteotoxicity” (Communications Biology, 2024).

This series concerns the molecule itself. Put plainly: fluorescence correlation spectroscopy (FCS); soluble supernatant of transfected Neuro2a cell lysate (50 mM Hepes-KOH pH 7.5, 150 mM NaCl, 1% Nonidet P-40); counts per particle (CPP) against GFP monomers as read-out of homo-oligomerisation, diffusion time as read-out of size.

B1: GFP-tagged TDP-43 carboxy-terminal fragment 233-414 (C233) (domain or fragment, human, UniProt Q13148 233-414, looked up)
chain: TFADDQIAQSLCGEDLIIKGISVHISNAEPKHNSNRQLERSGRFGGNPGGFGNQGGFGNSRGGGAGLGNNQGSNMGGGMNFGAFSINPAMMAAAQAALQSSWGMMGMLASQQNQSGPSGNNQNQGNMQREPNQAFGSGNNSYSGSNSGAAIGWGSASNAGSGSGFNGGFGSSMDSKSSGWGM
notes: Cloned into pmeGFP-C1 (HindIII/BamHI); also called G-C233; GFP-C233; source: Neuro2a, transfected, in lysate; not shown: GFP (monomeric enhanced GFP, A206K), N-terminal, kept
On to B1, for which the “counts per particle (CPP) relative to GFP monomers” value was roughly 4 fold.
